The chains are these.
B1: AB5-20 (antibody, V domains shown)
VH: QVQLVESGGGVVQPGRSLRLSCTASGFTFRHYGLHWVRQAPGKGLEWVAVILYDGSDEDYRDSVKGRFTISRDNSKNTLYLQMNSLRPEDTAVYYCAKQSGPYCSGGNCYSGHFDYWGQGTPVSVSS
VL: DIQMTQSPSSLSASVGDRVTITCQASQDISKSLSWYEQKPGKAPRLLIFEASNLETGVPSRFSGSGSGTSFSFTISSLQPEDFATYYCQQYDNVPLTFGGGTKVERK
B2: AB5-16 (antibody, V domains shown)
VH: QALMVQSEAAVKKPGASVKVSCKATGDAFSNHYLHWLRQAPGQGLEWLGIINPGAGSTTYAQKFQGRLTVTTDTSTNTVYMELSSLRSDDTAVYYCARDGAFIPSSYYYGMDVWGQGTTVTVSS
VL: EIVLTQSPGTLALSPGERATLSCRASQSVSSSYLAWYQQKPGQAPRLLIYGASSRATGVPDRFSGSGSGTDFTLTVSSLEPEDFAVYYCQQREAFGQGTKVEVK
B3: AB5-12 (antibody, V domains shown)
VH: QVQLQESGPGLVRPSQALSLTCTVSGGSISSEGYYWGWIRQHPGKGLEWIGYIYYTGNAYYNPSLQSRIDISVDTSANQFSLRLNSVTAADTAVYYCASDSFKGGFDSWGQGALVTVSS
VL: EIVLTQSPTTLSLSPGERATLSCRASQTVSGSVAWYQQKPGQAPRLVIYDVSYRATGIPARFSGSGSGTDFTLTISSLEPEDFAVYYCQERRKAFGQGTTVEIK
B4: AB6-17 (antibody, V domains shown)
VH: QLQLQESGPGLVESSETLSLTCTVSSGSISRSTYYWGWIRQPPGKGMEWIGSISSGGSTYYNPSLNSRVTISIDTSKNQFSLKLRSVTAADTAVYYCARALQWPSPRIDYWAQGTLVTVSS
VL: DIQMTQSPSSLSASVGDRVTITCRASQSISSYLNWYQHKPGKAPKLLIYAASSLESGVPSRFTGSGSGTDFTLTIDSLQPEDFATYYCQQSYSTPLFTFGPGTTVDIK
B5: AB5-5 (antibody, V domains shown)
VH: QISLKESGPTLVQPTQTLTLTCTFSGFSLSSSGVGVGWIRQPPGKALEWLALLYWNDDKRYSPSLRTRLTITKDSSKNQVVLTMTNMDPMDTATYYCAHPRQTTVTTVFGLYPRPAAFDVWGPGTMVTVSS
VL: QSFLTQPPSVSGAPGQRVTISCTGSSSNIGAGYGVDWYQQLPGTAPKLLIYDNNNRPSGVPDRFSGSTSGTSASLAITGLHAEDEADYYCQSYDRSLSGSVVFGGGTKLTVL

The target in the first experiment is SARS-CoV-2 wild-type (WT) receptor-binding domain (RBD) (SARS-CoV-2, wild type (Wuhan-Hu-1 …, UniProt P0DTC2)). Kind of experiment: ELISA. The note with it: both partners purified. (In general: An ELISA detects its analyte on a solid surface through an enzyme-linked reagent.)
Regarding B1, the binding result is given as “binds”.
For B2, the binding result is recorded as “binds”.
Still for that read-out and setting: next, B3: “no binding”; B4: “binds”; B5: “no binding”.

The next experiment deals with SARS-CoV-2 wild-type (WT) N-terminal domain (NTD) of the spike protein (SARS-CoV-2, wild type (Wuhan-Hu-1 …, UniProt P0DTC2)). Kind of experiment: ELISA. The note with it: both partners purified.
On to B3, for which the binding result is “no binding”.
Still for that read-out and setting: the value for B5 was “no binding”.

The target in a further experiment is T1, angiotensin-converting enzyme-2 (ACE2), biotinylated (Homo sapiens, assumed, UniProt Q9BYF1, biotin).
T1 construct: also called host protein
T1 sequence (Q9BYF1 18-805): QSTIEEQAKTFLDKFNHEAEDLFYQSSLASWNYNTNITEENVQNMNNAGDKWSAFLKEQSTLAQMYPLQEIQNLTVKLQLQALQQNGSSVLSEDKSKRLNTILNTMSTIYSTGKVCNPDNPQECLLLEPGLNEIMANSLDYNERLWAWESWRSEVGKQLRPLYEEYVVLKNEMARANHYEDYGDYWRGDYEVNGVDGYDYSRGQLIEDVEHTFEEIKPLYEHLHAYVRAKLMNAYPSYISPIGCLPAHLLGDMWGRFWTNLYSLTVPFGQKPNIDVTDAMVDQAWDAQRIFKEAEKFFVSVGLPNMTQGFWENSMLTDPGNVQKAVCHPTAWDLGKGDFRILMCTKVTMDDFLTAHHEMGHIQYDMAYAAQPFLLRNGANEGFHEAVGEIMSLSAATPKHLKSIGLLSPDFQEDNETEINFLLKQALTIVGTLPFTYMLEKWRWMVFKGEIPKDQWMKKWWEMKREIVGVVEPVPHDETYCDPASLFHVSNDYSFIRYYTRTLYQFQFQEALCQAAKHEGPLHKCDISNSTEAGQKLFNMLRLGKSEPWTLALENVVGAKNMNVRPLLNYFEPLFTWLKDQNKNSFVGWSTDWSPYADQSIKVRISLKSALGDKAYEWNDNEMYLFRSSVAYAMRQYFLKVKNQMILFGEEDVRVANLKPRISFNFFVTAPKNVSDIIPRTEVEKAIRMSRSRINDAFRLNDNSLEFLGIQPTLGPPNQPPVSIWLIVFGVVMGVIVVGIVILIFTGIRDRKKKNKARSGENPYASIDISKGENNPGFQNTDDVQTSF
Kind of experiment: ELISA. The note with it: both partners purified.
On to B1, for which the binding result is on record as “no binding”.
Still for that read-out and setting: next, B2: “no binding”.
As for B4, the binding result is given as “no binding”.
